Reference: PMC4452428 (Biotechnology and bioengineering, 2015)

Columns and labels:
[1] = system: MHC II alleles DRB1*0101, 0401, 0701, and 1501; conditions: IC50≥100 μM; average per protein for designs
[2] = Michaelis-Menten kinetics, colorimetric nitrocefin assay; assay type: biochemical; conditions: nitrocefin 10 μM to 500 μM, 96-well, triplicate

B1: P99 beta-lactamase (protein, UniProt P05364 21-381, looked up)
Beta-lactamase: TPVSEKQLAEVVANTITPLMKAQSVPGMAVAVIYQGKPHYYTFGKADIAANKPVTPQTLFELGSISKTFTGVLGGDAIARGEISLDDAVTRYWPQLTGKQWQGIRMLDLATYTAGGLPLQVPDEVTDNASLLRFYQNWQPQWKPGTTRLYANASIGLFGALAVKPSGMPYEQAMTTRVLKPLKLDHTWINVPKAEEAHYAWGYRDGKAVRVSPGMLDAQAYGVKTNVQDMANWVMANMAPENVADASLKQGIALAQSRYWRIGSMYQGLGWEMLNWPVEANTVVEGSDSKVALAPLPVAEVNPPAPPVKASWVHKTGSTGGFGSYVAFIPEKQIGIVMLANTSYPNPARVEAAYHILEALQ
In the case of B1, the “non-binding peptides out of 36” value [1] is reported as 13/36, the Km ([2]; non-linear regression, biological duplicate) is reported as 80 ± 10 µM and the kcat ([2]; non-linear regression, enzymes purified and assayed in biological duplicate) is reported as 360 ± 20 s⁻¹. It also gave a kcat/Km ([2]; biological duplicate) of 4.6 ± 0.7 s^−1μM^−1.
